Experimental data from PMC12533375, “Critical Role of IL1R2‐ENO1 Interaction in Inhibiting Glycolysis‐Mediated Pyroptosis for Protection Against Lethal Sepsis” (Advanced Science, 2025).

Target: T1, recombinant mouse ENO1 (rmENO1) (mouse, UniProt P17182 1-434)
T1 construct: recombinant mouse ENO1, Creative BioMart Cat. No. Eno1-244 M; The vendor's data sheet should be consulted; source: bought: Creative BioMart (Cat. No. Eno1-244 M)
Test: SPR; OpenSPR (Nicoya); rmIL1R2 immobilised on a carboxyl sensor (EDC/NHS), rmENO1 as analyte at 12.5 to 50 nM; 40 µL/min, 20 °C; 50 mM Tris-HCl, 150 mM NaCl, 3 mM EDTA, 0.05% P20, 0.5 mM CaCl2, pH 7.4; global 1:1 fit
Details: both partners purified

T1 sequence (P17182 whole entry): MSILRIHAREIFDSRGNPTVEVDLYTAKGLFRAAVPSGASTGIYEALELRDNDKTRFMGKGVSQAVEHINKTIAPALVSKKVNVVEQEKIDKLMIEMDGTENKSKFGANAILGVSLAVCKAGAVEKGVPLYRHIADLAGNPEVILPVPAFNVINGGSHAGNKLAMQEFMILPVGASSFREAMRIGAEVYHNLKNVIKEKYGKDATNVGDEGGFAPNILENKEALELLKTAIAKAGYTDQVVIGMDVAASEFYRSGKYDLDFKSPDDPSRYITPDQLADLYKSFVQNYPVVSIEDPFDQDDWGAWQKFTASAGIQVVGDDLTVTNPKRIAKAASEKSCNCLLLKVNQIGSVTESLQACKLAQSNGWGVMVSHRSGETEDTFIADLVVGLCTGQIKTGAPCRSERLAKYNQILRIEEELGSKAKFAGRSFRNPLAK

Kd: 1.99 nM
B1: recombinant mouse IL1R2 (rmIL1R2) (receptor, UniProt P27931 14-355, looked up)
chain: FTTPTVVHTGKVSESPITSEKPTVHGDNCQFRGREFKSELRLEGEPVVLRCPLAPHSDISSSSHSFLTWSKLDSSQLIPRDEPRMWVKGNILWILPAVQQDSGTYICTFRNASHCEQMSVELKVFKNTEASLPHVSYLQISALSTTGLLVCPDLKEFISSNADGKIQWYKGAILLDKGNKEFLSAGDPTRLLISNTSMDDAGYYRCVMTFTYNGQEYNITRNIELRVKGTTTEPIPVIISPLETIPASLGSRLIVPCKVFLGTGTSSNTIVWWLANSTFISAAYPRGRVTEGLHHQYSENDENYVEVSLIFDPVTREDLHTDFKCVASNPRSSQSLHTTVKE
notes: recombinant mouse IL1R2, R&D Systems Cat. No. 563-MR-100; The vendor's data sheet should be consulted; source: bought: R&D Systems (Cat. No. 563-MR-100)
